Source: US20050214212A1

Tests used:
[1] = target: glutathione-S-transferase fusion protein containing domains v3-v10 of human CD44 (human) (UniProt P16070); assay: ratio of affinities from SPR on GST/CD44v3-v10
[2] = target: glutathione-S-transferase fusion protein containing domains v3-v10 of human CD44 (human) (UniProt P16070); assay: SPR (BIAcore 2000), GST/CD44v3-v10 immobilised on CM5
[3] = target: CD44v6 (human CD44 variant isoform containing exon v6) on human tumour cells (human) (UniProt P16070); assay: immunoreactivity assay, 186Re-MAG3-labelled MAb on fixed UM-SCC-11B cells
[4] = target: glutathione-S-transferase fusion protein containing domains v3-v10 of human CD44 (human) (UniProt P16070); assay: SPR (BIAcore 2000), GST/CD44v3-v10 immobilised on CM5, MAb 8-67 nM injected
[5] = target: CD44v6 (human CD44 variant isoform containing exon v6) on human tumour cells (human) (UniProt P16070); assay: immunoreactivity assay, 131I-labelled MAb on glutaraldehyde-fixed UM-SCC-11B cells, experiment 2
[6] = target: CD44v6 (human CD44 variant isoform containing exon v6) on human tumour cells (human) (UniProt P16070); assay: immunoreactivity assay, 131I-labelled MAb on glutaraldehyde-fixed UM-SCC-11B cells, experiment 3
[7] = target: CD44v6 (human CD44 variant isoform containing exon v6) on human tumour cells (human) (UniProt P16070); assay: immunoreactivity assay of clinical 99mTc-/186Re-MAG3-labelled BIWA 4 batches on fixed UM-SCC-11B cells
[8] = target: CD44v6 (human CD44 variant isoform containing exon v6) on human tumour cells (human) (UniProt P16070); assay: immunoreactivity assay on fixed UM-SCC-11B cells, linear extrapolation to infinite antigen excess, experiment 2
[9] = target: CD44v6 (human CD44 variant isoform containing exon v6) on human tumour cells (human) (UniProt P16070); assay: immunoreactivity assay on fixed UM-SCC-11B cells, linear extrapolation to infinite antigen excess, experiment 3
[10] = target: CD44v6 (human CD44 variant isoform containing exon v6) on human tumour cells (human) (UniProt P16070); assay: immunoreactivity assay, 125I-labelled MAb on glutaraldehyde-fixed UM-SCC-11B cells, experiment 3

glutathione-S-transferase fusion protein containing domains v3-v10 of human CD44 (human), sequence (P16070 267-604): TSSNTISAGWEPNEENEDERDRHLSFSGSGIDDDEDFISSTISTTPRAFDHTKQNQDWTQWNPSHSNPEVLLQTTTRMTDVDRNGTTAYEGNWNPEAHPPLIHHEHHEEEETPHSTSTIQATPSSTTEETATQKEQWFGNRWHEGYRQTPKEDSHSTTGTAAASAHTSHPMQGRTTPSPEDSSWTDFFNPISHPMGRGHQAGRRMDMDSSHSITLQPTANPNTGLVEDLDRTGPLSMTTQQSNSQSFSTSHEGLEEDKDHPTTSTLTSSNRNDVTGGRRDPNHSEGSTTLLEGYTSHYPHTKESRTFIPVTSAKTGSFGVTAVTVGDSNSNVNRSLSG

| fold lower affinity than cMAb BIWA 2 [1] | fold lower affinity than hMAb BIWA 8 [1] | Kd relative to murine BIWA 1 [2] | immunoreactive fraction [3] | Kd [4] | koff [4] | kon [4] | Binding to 5 × 10^6 cells (%) [5] | Binding to 5 × 10^6 cells (%) [6] | immunoreactive fraction [7] | Binding Extrapolated (%) (immunoreactive fraction) [8] | Binding Extrapolated (%) (immunoreactive fraction) [9] | Binding to 5 × 10^6 cells (%) [10] | Binder |
| --- | --- | --- | --- | --- | --- | --- | --- | --- | --- | --- | --- | --- | --- |
| 14 fold | 4 fold | 10.5 | > 75% | 3.4 nM | 0.00022 s⁻¹ | 65000 M⁻¹ s⁻¹ | 77.4% | 77.3% | > 80% | 82.3% | 74.5% | – | hMAb BIWA 4 (bivatuzumab), humanised CDR-grafted antibody without framework modifications (antibody, human IgG1, kappa, V domains shown) VH: EVQLVESGGGLVKPGGSLRLSCAASGFTFSSYDMSWVRQAPGKGLEWVSTISSGGSYTYYLDSIKGRFTISRDNAKNSLYLQMNSLRAEDTAVYYCARQGLDYWGRGTLVTVSS VL: EIVLTQSPATLSLSPGERATLSCSASSSINYIYWYQQKPGQAPRLLIYLTSNLASGVPARFSGSGSGTDFTLTISSLEPEDFAVYYCLQWSSNPLTFGGGTKVEIKR |
| – | – | 2.6 | > 75% | 0.84 nM | 6.3e-05 s⁻¹ | 75000 M⁻¹ s⁻¹ | – | – | – | – | 92.1% | 91.8% | hMAb BIWA 8, humanised CDR-grafted antibody with framework modifications (antibody, human IgG1, kappa, V domains shown) VH: EVQLVESGGGLVKPGGSLRLSCAASGFTFSSYDMSWVRQAPGKGLEWVSTISSGGSYTYYLDSIKGRFTISRDNAKNSLYLQMNSLRAEDTAVYYCARQGLDYWGRGTLVTVSS VL: EIVLTQSPATLSLSPGERATLSCSASSSINYIYWLQQKPGQAPRILIYLTSNLASGVPARFSGSGSGTDFTLTISSLEPEDFAVYYCLQWSSNPLTFGGGTKVEIKR |
